Measured values taken from patent publication US20220332808A1, “HUMAN-DERIVED ANTI-HUNTINGTIN (HTT) ANTIBODIES AND USES THEREOF” (published 2022).
Values joined by “and” are separate entries in the source; they are usually repeats but may differ in a detail not shown here. Equal values may be shown once. Where no end group is shown, it is not given here.

T1: BSA-coupled polyP repeat peptide of Htt Exon1 (human, also: coupled to BSA)
T1 peptide: PPPPPPPPPPP

T2: C-terminal peptide of Htt Exon1 coated directly to the plate (not coupled to BSA) (human)
T2 peptide: PPGPAVAEEPLHRP

T3: BSA-coupled C-terminal peptide of Htt Exon1 (the 14 C-terminal amino acids) (human, also: coupled to BSA)
T3 peptide: PPGPAVAEEPLHRP

B1: NI-302.7D8 (antibody, V domains shown)
VH: QVQLVQSGSELKKPGASVKVSCKASGYNFNNYAINWLRQAPGQGLEWMGWINTITGHPTYAQGFKGRFVFSLDTSVSTAYLQISSLKPEDTAVYYCARTYSNYGEFDYWGQGTLVTVSS
VL: QSALTQPASVSGSRGQSITISCTGTSSDVGSYNLVSWYQQYPGKAPKLIIHEGSERPSGVSNRFSGSKSGNTASLTISGLQAEDEADYYCCSYAGTTTFVLFGGGTKLTVL
B2: NI-302.15F9 (antibody, V domains shown)
VH: EVQLVESGGGLVTPGGSLRLSCEASGFLFKNSSMNWVRQTPGKGLEWVSSIDTSATNYKYYADSVKGRFTISRDDATNSLYLQMNSLRADDTATYYCARGYYTPRDFDYWGQGTLVTVSS
VL: DVVMTQSPQTLSVSLGQAASISCRSSQSLLYRDNNTYLNWFHQRPGQSPRRLIYRASDRDSGVPDRFSGGGSGTDFTLKISGVEAEDVGTYYCMQGTHWPRTFGQGTKVEIK
B3: NI-302.33C11 (antibody, V domains shown)
VH: EVQLVESGGGVVQPGNSLRLSCAASGFRFSDFGMHWVRQAPGKGLEWLALIWYDGGYKYYADSVKGRFTISRDNSKNTMFLQMNSLRAEDTAVYYCATHLEYCSRTTCYLGHWGQGTLVTVSS
VL: DIQLTQSPSFLSASVGDTVTFTCRASQGISDYLAWFQQKPGIAPKLLIYAASTLQTGVPSRFSGSGSGTEFTLTIRSLQSEDFGTYYCQQLKTYPYTFGQGTKVEIK
B4: NI-302.63F3 (antibody, V domains shown)
VH: QVQLVQSGSAFKKPGTSVKVSCKASGYTFETRSMNWVRQAPGQGLEYMGWINTNTGNRTYVQAFRGRFVFSLDTSVSTAYLQISNLKTEDTAVYYCARGAGGGYWFDSWGQGTLVTVSS
VL: DIQMTQSPDSLAVSLGERATINCKSNQSLFYSSNNNNYLAWYQHKSGQPPKLLVYWGSTRESGVPDRFSGSGSGTDFTLTISSLQAEDVAIYYCHQYYHNPYTFGQGTKLEIK
B5: NI-302.35C1 (antibody, V domains shown)
VH: EVQLVESGGNLVQPGGSLRLSCTASGFTFSITALSWVRQAPEKGPQWVSAITGNAYGTYYADSVKGRFTISRDNAKNTLYLQMNGLRAEDTAIYYCVKGIASDSSGYSAFWGPGTLVTVSS
VL: EIVLTQSPATLSLSPGERATLSCRASQSVDNQFAWYQQKPGQAPRLLIYDASRRAPGIPDRFSGSGSGTDFTLTISSLEPEDFAIYYCQHRYTWLYTFGQGTRLEIK

Columns and labels:
[1] = biological target: HD49: huntingtin Exon1 protein with 49 polyQ repeats, GST tag cleaved off, aggregation reaction (human, UniProt P42858); test: direct ELISA, coated at 5 µg/ml
Method: (§1) To determine the half maximal effective concentration (EC₅₀) of recombinant human-derived HTT antibody […] to soluble and aggregated huntingtin Exon1 proteins with 21 or 49 polyQ repeats direct ELISA was performed. In brief, 96 well microplates (Corning) were coated with either GST-HD21, GST-HD49 or aggregated HD21 or HD49 at a concentration of 5 μg/ml in coating buffer (15 mM Na2CO3, 35 mM NaHCO₃, pH 9.42). Nonspecific binding sites were blocked for 1 h at RT with PBS/0.1% Tween®-20 containing 2% BSA (Sigma-Aldrich, Buchs, Switzerland). Primary antibodies were diluted to the indicated concentrations and incubated 1 h at RT. Binding was determined using either a donkey anti-human IgG Fcγ-specific antibody conjugated with HRP or a goat anti-mouse IgG (H+L)-specific antibody conjugated with HRP, followed by measurement of HRP activity in a standard colorimetric assay. Subsequently, EC₅₀ values were estimated by a non-linear regression using GraphPad Prism software (San Diego, USA).
(§2) To determine the half maximal effective concentration (EC₅₀) of recombinant human-derived HTT antibodies NI-302.35C1 and NI-302.72F10 to soluble and aggregated HTT Exon1 proteins with 21 or 49 polyQ repeats direct ELISA and EC50 determination was performed as described in Example 6, supra.
(§3) To determine the half maximal effective concentration (EC₅₀) of recombinant human-derived HTT antibody NI-302.7D8 to soluble and aggregated HTT Exon1 proteins with 21 or 49 polyQ repeats direct ELISA and EC50 determination was performed as described in Example 6, supra.

[2] = biological target: GST-HttExon1Q49 (human) (UniProt P42858); test: direct ELISA, coated at 5 µg/ml
[3] = biological target: all four species: aggregated HD49, aggregated HD21, soluble GST-HD49 and GST-HD21 Htt Exon 1 proteins; test: direct ELISA, coated at 5 µg/ml
[4] = biological target: HD21: huntingtin Exon1 protein with 21 polyQ repeats, GST tag cleaved off, aggregation reaction (human, UniProt P42858); test: direct ELISA, coated at 5 µg/ml
Method: as §1, §2, §3

[5] = biological target: GST-HttExon1Q49 (human) (UniProt P42858); test: direct ELISA
[6] = biological target: GST-HttExon1Q21 (human) (UniProt P42858); test: direct ELISA, coated at 5 µg/ml
[7] = biological target: T1, BSA-coupled polyP repeat peptide of Htt …; test: direct ELISA on BSA-coupled Htt Exon1 peptides
Method: (§4) To determine the half maximal effective concentration (EC₅₀) of recombinant human-derived HTT antibody NI-302.33C11 to BSA-coupled peptide fragments of the huntingtin Exon 1 direct ELISA with BSA-coupled Htt Exon1 domain peptides was performed.
(§5) In brief, 96 well microplates (Corning) were coated with BSA-coupled synthetic peptides (Schafer-N, Denmark) of the N-terminal amino acid 1-19 ([…], SEQ ID No.: 93), the P-rich domain sequence ([…], SEQ ID No.: 94), the polyP repeat sequence ([…], SEQ ID No.: 95) or the 14 C-terminal amino acids ([…], SEQ ID No.: 96) or with the full lengths GST-HD49 Exon 1 protein at […] in coating buffer (15 mM Na2CO3, 35 mM NaHCO₃, pH 9.42). Non-specific binding sites were blocked for 1 h at RT with PBS/0.1% Tween®-20 containing 2% BSA (Sigma-Aldrich, Buchs, Switzerland). Primary antibodies were diluted to the indicated concentrations and incubated 1 h at RT. Binding was determined using donkey anti-human IgG Fcγ-specific antibody conjugated with HRP, followed by measurement of HRP activity in a standard colorimetric assay and the EC₅₀ values were estimated by a non-linear regression using GraphPad Prism software (San Diego, USA). […]

[8] = biological target: T2, C-terminal peptide of Htt Exon1 coated …; test: direct ELISA, peptide coated directly
[9] = biological target: T3, BSA-coupled C-terminal peptide of Htt …; test: direct ELISA on BSA-coupled Htt Exon1 peptides
Method: as §4, §5

Chain of GST-HttExon1Q49 (human) (P42858 1-88, stated change not applied): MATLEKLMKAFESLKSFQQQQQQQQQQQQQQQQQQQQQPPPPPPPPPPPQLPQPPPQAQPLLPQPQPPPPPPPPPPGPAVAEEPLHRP
Chain of GST-HttExon1Q21 (human) (P42858 1-88, change not shown): as the sequence (P42858 1-88, stated change not applied) above

Binder	EC50 [1] [nM]	EC50 [2] [nM]	EC50 [3]	EC50 [5] [nM]	further results
B1	17	6			
B2			5 nM and 35 nM		fold preference of HD49 vs. HD21 [3]: 5 fold
B3	~0.1	0.1		0.03	EC50 [4]: ~0.1 nM; EC50 [6]: 0.1 nM; EC50 [7]: 0.03 nM
B4			0.2 to 0.4 nM		
B5	~2.7			3.2	EC50 [8]: > 100 nM; EC50 [9]: ~0.7 nM
